B1: SASS6 (parent)
chain: QKELQDVGQSLRIKEQEVCKLQEQ

Variants of: B1
Test: protein stability index of a GFP-peptide fusion (GPS, HEK-293T) (PSI 1-6); higher = more stable
Details: c terminus: a fixed tail appended
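Also: lentivirally expressed fusions sorted by FACS into six bins by GFP to DsRed ratio, PSI derived from sequencing read proportions per bin multiplied by bin number.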

Protein stability index, by site and new letter:
Q5: W 4.79; R 4.41; L 2.94; F 4.27; C 5.7; D 5.37; S 5.16; G 5.69; H 4.91; K 5.7; Y 4.32; I 5.02; V 5.13; M 5.16; N 5.3; T 5.41
E3: F 3.29; V 4.52; R 5.25; I 4.37; C 4.83; M 4.02; P 3.71; Q 4.68; W 3.84; S 5.1; A 4.92; K 4.63; T 5.08; H 4.39; D 5.34; Y 4.4; N 4.88; G 4.68; L 4.92
I13: Y 4.95; S 5.45; F 4.85; T 5.13; H 4.64; P 5.38; N 5.31; V 5.44; M 5.64; L 5.57; D 5.72; C 3.3; K 5.29; A 4.69; R 5.7; E 5.34; W 4.57
E17: N 4.33; Q 4.62; D 5.55; R 4.54; P 4.55; H 5.02; S 4.97; L 4.77; C 4.56; G 4.96; M 4.71; I 4.28; Y 4.22; K 5.25; A 4.66; T 4.95
C19: Y 5.19; K 4.88; E 5.78; V 5.25; W 4.59; P 4.9; F 5.35; I 4.35; H 5.61; T 5.31; D 5.56; M 5.34; S 5.53; Q 5.61; A 4.79; R 5.23
S10: G 4.74; H 4.89; M 5.33; L 5; I 3.83; V 3.9; D 3.74; C 4.12; T 5.48; E 5.72; W 2.66; P 4.37; K 5.1; Q 5.31; Y 4.32; A 5; F 4.91
Q1: Y 4.78; V 4.88; M 4.5; L 4.46; P 4.91; N 5.75; K 5.22; T 4.55; S 4.63
V18: L 5.25; R 5.62; T 4.74; E 5.95; G 4.49; H 5.11; I 4.75; S 5.35; N 5.19; F 4.5; Q 5.54; K 5.32; D 5.94; P 3.51; Y 5.03; M 5.46; A 4.16; W 4.28
L21: E 5.78; A 5.02; D 5.84; F 5.14; C 5.73
L4: S 5.41; F 5.11; V 5.28; I 5.34; Q 4.24; W 4.82; C 4.06; M 3.98; Y 4.98; A 5.25; P 5.34; D 5.57; G 5.59; T 5.23; N 5.1; K 4.87; H 5.68; R 4.96
L11: I 5.39; D 5.75; N 5.77; S 5.47; H 5.36; M 5.6; P 5.37; F 5.26; K 5.12; C 5.09; W 5.11; G 5.88; T 5.67; Y 5.21; Q 5.54; V 5.39; E 5.84; A 5.25
R12: A 5.34; H 5.41; P 5.39; T 3.75; G 5.6; Q 5.75; S 5.34; F 5.02; D 4.03; W 4.84; K 5.55; C 4.81; I 5.14; E 5.71; L 5.33; Y 5.28; N 5.19
K14: P 4.73; I 4.43; D 5.63; R 5.19; N 4.6; H 4.78; E 5.49; S 5.33; F 4.38; M 4.47; G 5.46; Q 4.9; Y 4.68; V 4.94; T 5.75; A 5.04; C 5.54
K2: D 5.26; G 4.65; S 5.43; A 4.58; T 5.34; E 5.48; M 5.1; F 4.02; L 4.97; Y 4.98; P 4.2; C 5.29; I 4.88; H 5.46
D6: V 4.46; M 5.02; G 5; K 5.23; F 3.81; P 5.26; Q 5.31; L 4.14; Y 4.58; H 4.62; S 4.91; T 4.74; A 5.17; E 5.05; N 4.9
Q9: T 5.23; G 5.02; K 5.3; I 4.97; H 5.05; S 4.47; D 5.71; F 4.13; L 4.84; A 5.52; E 4.49; M 4.67; R 5.1; Y 4.87; C 4.76; N 5.67; P 5.56
Q16: K 5.48; W 4.66; G 5.83; M 4.96; T 5.28; H 5.13; C 4.99; E 5.63; D 5.43; L 4.71; I 4.84; Y 4.68; S 5.56; V 5.21; A 5.12; N 5.13
V7: L 5.14; T 5.68; Y 5.18; R 5.39; M 3.42; C 3.36; Q 5.82; F 4.73; I 5.05; A 5.19; H 4.72; P 4.8; K 5.16; S 5.76; E 5.11; N 4.92; W 4.64; D 5.71; G 5.41
K20: R 4.82; V 5.26; C 5.11; Y 4.66; N 5.12; I 5.15; T 5.09; L 5.02; G 5.36; M 5.24; F 4.31; P 4.98; H 4.49; S 5.55
G8: H 5; I 4; S 5; V 4.69; W 3.84; E 5.38; D 5.26; T 5.13; F 4.07; K 5.2; Y 4.18; N 5.12; M 4.98; A 3.61; P 4.75; R 5.48; L 3.83; C 4.92
E15: Q 4.66; G 5.1; N 3.15; I 2.8; C 4.11; A 5.01; D 5; V 3.54; S 4.85; T 4.56; L 4.15; F 3.24; W 2.06; P 4.66; M 4.54; R 4.21; H 4.49; K 3.7

From the supplement of paper PMC10567573
